Measured values from article PMC12084609, “Structural insights into small-molecule agonist recognition and activation of complement receptor C3aR” (The EMBO Journal, 2025).
Numbering of substitutions follows the chain as printed. “And” between values parts separate entries of the source, which are not always exact repeats. Identical values can stand only once.

Legend:
Assay type in all cases: cell-based
C3aR I102^3.32A = target: T1, C3aR I102^3.32A (Homo sapiens, UniProt Q16581, I102A); assay: GloSensor-based cAMP assay, C3aR mutant I102A; conditions: for cAMP response (% Forskolin): I1023.32A, single replicates
T1 construct: expressed in transfected cells; host or cells: HEK293T
T1 sequence (Q16581 1-482 I102A): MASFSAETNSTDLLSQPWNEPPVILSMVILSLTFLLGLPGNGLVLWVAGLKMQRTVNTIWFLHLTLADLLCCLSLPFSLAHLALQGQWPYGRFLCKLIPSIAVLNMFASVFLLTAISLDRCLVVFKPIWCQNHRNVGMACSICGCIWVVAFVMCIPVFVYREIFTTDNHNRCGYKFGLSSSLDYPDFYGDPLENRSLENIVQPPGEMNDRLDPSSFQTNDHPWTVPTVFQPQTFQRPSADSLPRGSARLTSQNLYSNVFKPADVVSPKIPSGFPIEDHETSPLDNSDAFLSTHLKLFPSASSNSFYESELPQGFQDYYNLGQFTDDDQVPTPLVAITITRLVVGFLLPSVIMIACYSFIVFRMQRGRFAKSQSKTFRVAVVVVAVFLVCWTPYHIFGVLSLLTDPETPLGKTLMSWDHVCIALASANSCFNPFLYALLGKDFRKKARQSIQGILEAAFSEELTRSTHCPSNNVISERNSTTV
Experimental: (§1) HEK293T cells were seeded on 6-well plates (NEST) and transfected with pGlosensor™-22F plasmids (Promega) and pcDNA3.1 plasmids encoding C3aR or its mutants an with N-terminal FLAG tag. After 48 h, cells were detached with Accutase solution (Sigma-Aldrich) and washed with PBS, and resuspended in assay buffer (CO2-independent medium with 0.5 mg mL^−1D-luciferin). 100,000–200,000 cells were seeded on 96-well white bottom plates (SPL) and incubated at 37 °C for 45 min followed by 45 min incubation at room temperature. After 90 min of incubation, basal luminescence signals were recorded. In total, 25 μl of test ligand with various concentrations and 1 μM Forskolin (Sigma-Aldrich) were treated to the cells and luminescence signals were measured by Tristar 2 LB 942 multimode reader (Berthold). […] Relative luminescence unit (%) was calculated with the signal of wells treated with vehicle as 0% and the signal of wells treated with 1 μM Forskolin as 100% (DiRaddo et al, [2014]). Nonlinear regression was performed using a three-parameter logistic equation.

C3aR H418^7.36A = target: T2, C3aR H418^7.36A (Homo sapiens, UniProt Q16581, H418A); assay: GloSensor-based cAMP assay, C3aR mutant H418A; conditions: for cAMP response (% Forskolin): single replicates
T2 construct: expressed in transfected cells; host or cells: HEK293T
T2 sequence (Q16581 1-482 H418A): T1 sequence (Q16581 1-482 I102A) with A102I, H418A
Experimental: as §1

C3aR L30^1.39A = target: T3, C3aR L30^1.39A (Homo sapiens, UniProt Q16581, L30A); assay: GloSensor-based cAMP assay, C3aR mutant L30A; conditions: for cAMP response (% Forskolin): L301.39A, single replicates
T3 construct: expressed in transfected cells; host or cells: HEK293T
T3 sequence (Q16581 1-482 L30A): T1 sequence (Q16581 1-482 I102A) with L30A, A102I
Experimental: as §1

[1] = Dunnett's multiple comparisons test, WT minus mutant

C3a: anaphylatoxin C3a, natural peptide ligand of C3aR (a 77-amino acid peptide), Sigma-Aldrich
Mean Diff. of pIC50, WT vs. I102A (C3aR I102^3.32A; [1]): 0.080
ΔpIC50 ± SE of Diff. (C3aR I102^3.32A; I102^3.32A relative to WT C3aR): -0.08 ± 0.06
IC50 (C3aR I102^3.32A; I102^3.32A, dose-response plot, read-out: IC50): 3.33 nM
pIC50 (Replicate) (C3aR I102^3.32A; I102^3.32A, individual replicates): 8.61 and 8.63 and 8.49
pIC50 ± SEM (Mean) (C3aR I102^3.32A; I102^3.32A, mean of independent experiments): 8.47
cAMP response (% Forskolin) (C3aR I102^3.32A; Log[C3a (M)] -7): 12.51 % Forskolin and 13.87 % Forskolin and 13.89 % Forskolin and 16.73 % Forskolin
cAMP response (% Forskolin) (C3aR I102^3.32A; Log[C3a (M)] -8): 18.09 % Forskolin and 20.55 % Forskolin and 21.20 % Forskolin and 43.71 % Forskolin
cAMP response (% Forskolin) (C3aR I102^3.32A; Log[C3a (M)] -9): 79.37 % Forskolin and 75.76 % Forskolin and 87.66 % Forskolin and 96.25 % Forskolin
cAMP response (% Forskolin) (C3aR I102^3.32A; Log[C3a (M)] -10): 100.22 % Forskolin and 97.06 % Forskolin and 101.20 % Forskolin and 92.74 % Forskolin
cAMP response (% Forskolin) (C3aR I102^3.32A; Log[C3a (M)] -11): 101.22 % Forskolin and 97.60 % Forskolin and 96.34 % Forskolin and 96.47 % Forskolin
cAMP response (% Forskolin) (C3aR I102^3.32A; Log[C3a (M)] -12): 100.09 % Forskolin and 99.44 % Forskolin and 103.06 % Forskolin and 100.29 % Forskolin
Mean Diff. of pIC50, WT vs. H418A (C3aR H418^7.36A; [1]): 0.008
cAMP response (% Forskolin) (C3aR H418^7.36A; H418A, Log[C3a (M)] -7): 25.95 % Forskolin and 18.34 % Forskolin and 14.90 % Forskolin and 10.15 % Forskolin
cAMP response (% Forskolin) (C3aR H418^7.36A; H418A, Log[C3a (M)] -8): 26.38 % Forskolin and 19.33 % Forskolin and 14.37 % Forskolin and 9.75 % Forskolin
cAMP response (% Forskolin) (C3aR H418^7.36A; H418A, Log[C3a (M)] -9): 37.00 % Forskolin and 39.46 % Forskolin and 38.86 % Forskolin and 18.94 % Forskolin
cAMP response (% Forskolin) (C3aR H418^7.36A; H418A, Log[C3a (M)] -10): 73.80 % Forskolin and 84.21 % Forskolin and 84.87 % Forskolin and 53.38 % Forskolin
cAMP response (% Forskolin) (C3aR H418^7.36A; H418A, Log[C3a (M)] -11): 92.78 % Forskolin and 94.37 % Forskolin and 96.55 % Forskolin and 91.56 % Forskolin
cAMP response (% Forskolin) (C3aR H418^7.36A; H418A, Log[C3a (M)] -12): 97.08 % Forskolin and 98.99 % Forskolin and 94.98 % Forskolin and 97.61 % Forskolin
ΔpIC50 ± SE of Diff. (C3aR H418^7.36A; H418^7.36A relative to WT C3aR): -0.008 ± 0.011
IC50 (C3aR H418^7.36A; H418^7.36A, dose-response plot, read-out: IC50): 3.34 nM
pIC50 (Replicate) (C3aR H418^7.36A; H418^7.36A, individual replicates): 8.55 and 8.43 and 8.42 (2×) and 8.38 and 8.70
pIC50 ± SEM (Mean) (C3aR H418^7.36A; H418^7.36A, mean of independent experiments): 8.49
cAMP response (% Forskolin) (C3aR H418^7.36A; H4187.36A, Log[C3a (M)] -7): 18.06 % Forskolin and 18.98 % Forskolin and 15.70 % Forskolin and 12.14 % Forskolin and 13.13 % Forskolin and 12.07 % Forskolin and 13.03 % Forskolin
cAMP response (% Forskolin) (C3aR H418^7.36A; H4187.36A, Log[C3a (M)] -8): 24.13 % Forskolin and 25.40 % Forskolin and 25.03 % Forskolin and 14.18 % Forskolin and 21.72 % Forskolin and 18.92 % Forskolin and 21.43 % Forskolin
cAMP response (% Forskolin) (C3aR H418^7.36A; H4187.36A, Log[C3a (M)] -9): 81.20 % Forskolin and 92.26 % Forskolin and 92.38 % Forskolin and 94.46 % Forskolin and 94.81 % Forskolin and 73.56 % Forskolin and 81.94 % Forskolin
cAMP response (% Forskolin) (C3aR H418^7.36A; H4187.36A, Log[C3a (M)] -10): 97.67 % Forskolin and 104.16 % Forskolin and 99.86 % Forskolin and 96.43 % Forskolin and 93.22 % Forskolin and 100.34 % Forskolin and 90.38 % Forskolin
cAMP response (% Forskolin) (C3aR H418^7.36A; H4187.36A, Log[C3a (M)] -11): 100.38 % Forskolin and 103.33 % Forskolin and 102.03 % Forskolin and 95.26 % Forskolin and 97.84 % Forskolin and 98.73 % Forskolin and 97.27 % Forskolin
cAMP response (% Forskolin) (C3aR H418^7.36A; H4187.36A, Log[C3a (M)] -12): 93.49 % Forskolin and 89.91 % Forskolin and 97.60 % Forskolin and 95.65 % Forskolin and 97.38 % Forskolin and 104.40 % Forskolin and 97.91 % Forskolin
Mean Diff. of pIC50, WT vs. L30A (C3aR L30^1.39A; [1]): -0.019
ΔpIC50 ± SE of Diff. (C3aR L30^1.39A; L30^1.39A relative to WT C3aR): 0.019 ± 0.009
IC50 (C3aR L30^1.39A; L30^1.39A, dose-response plot, read-out: IC50): 2.77 nM
pIC50 (Replicate) (C3aR L30^1.39A; L30^1.39A, individual replicates): 8.56 and 8.70 and 8.57 and 8.44
pIC50 ± SEM (Mean) (C3aR L30^1.39A; L30^1.39A, mean of independent experiments): 8.57 ± 0.05 and 8.57
cAMP response (% Forskolin) (C3aR L30^1.39A; Log[C3a (M)] -7): 9.08 % Forskolin and 11.83 % Forskolin and 11.69 % Forskolin and 11.40 % Forskolin
cAMP response (% Forskolin) (C3aR L30^1.39A; Log[C3a (M)] -8): 10.54 % Forskolin and 13.47 % Forskolin and 12.71 % Forskolin and 14.92 % Forskolin
cAMP response (% Forskolin) (C3aR L30^1.39A; Log[C3a (M)] -9): 79.63 % Forskolin and 73.91 % Forskolin and 80.93 % Forskolin and 94.77 % Forskolin
cAMP response (% Forskolin) (C3aR L30^1.39A; Log[C3a (M)] -10): 98.57 % Forskolin and 99.49 % Forskolin and 94.04 % Forskolin and 99.72 % Forskolin
cAMP response (% Forskolin) (C3aR L30^1.39A; Log[C3a (M)] -11): 93.76 % Forskolin and 102.28 % Forskolin and 98.92 % Forskolin (2×)
cAMP response (% Forskolin) (C3aR L30^1.39A; Log[C3a (M)] -12): 93.05 % Forskolin and 98.36 % Forskolin and 95.43 % Forskolin and 98.17 % Forskolin
